Biological target: 人重链铁蛋白(HFn) (人铁蛋白H亚基, wild type, recombinant from E. coli) (human)
Experiment: ELISA, antigen coated at 1 μg/ml, purified antibody titrated, HRP goat anti-mouse IgG, OD450

Chain of 人重链铁蛋白(HFn) (人铁蛋白H亚基, wild type, recombinant from E. coli) (human) (chain, as listed by the source): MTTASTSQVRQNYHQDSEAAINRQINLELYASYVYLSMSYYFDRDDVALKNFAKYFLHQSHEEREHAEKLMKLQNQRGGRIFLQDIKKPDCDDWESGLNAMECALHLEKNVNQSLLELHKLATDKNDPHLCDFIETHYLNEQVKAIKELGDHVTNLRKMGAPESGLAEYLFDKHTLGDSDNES

EC50: 3.68 ng/mL
B1: 单克隆抗体3A (抗人重链铁蛋白的抗体3A, secreted by hybridoma 3A7 1B6, CGMCC NO:21906) (antibody, IgG2b, V domains shown)
VH: EVQLQQPGAELVKPGTSVKLSCKASGYIFTSYWMHWVKQRPGQGLEWIGEINPSNARTNYNEKFKSKATLTVDKSSSTTYMQLSSLTSEDSAVYYCARSSYGKNAMDYWGQGTSVTVSS
VL: DIQMTQTPSSLSASLGDRVTISCRTSQDISNYLNWYQQKPDGTVKLLIYYTSRLHSGVPSRFSGSGSGTAYSLTISNLEQEDIATYLCQEGNTLPRTFGGGTKLEIKR
notes: also called 3A单抗; 3A抗体
